Test results taken from patent US20160200782A1.

Columns and labels:
Experiment in all cases: cell-based or functional assay
[1] = target: SAPK4(h) (human) (UniProt O15264)
[2] = target: CK1δ(h) (human) (UniProt P48730)
[3] = target: MSSK1(h) (human) (UniProt Q9UPE1)
[4] = target: EGFR(L858R)(h) (human) (UniProt P00533)
[5] = target: EphB2(h) (human) (UniProt P29323)
[6] = target: DDR2(h) (human) (UniProt Q16832)
[7] = target: Met(Y1248C)(h) (human) (UniProt P08581)
[8] = target: WNK3(h) (human) (UniProt Q9BYP7)
[9] = target: IR(h), activated (human) (UniProt P06213)
Sequence of IR(h), activated (human) (P06213 1005-1310 limits assumed): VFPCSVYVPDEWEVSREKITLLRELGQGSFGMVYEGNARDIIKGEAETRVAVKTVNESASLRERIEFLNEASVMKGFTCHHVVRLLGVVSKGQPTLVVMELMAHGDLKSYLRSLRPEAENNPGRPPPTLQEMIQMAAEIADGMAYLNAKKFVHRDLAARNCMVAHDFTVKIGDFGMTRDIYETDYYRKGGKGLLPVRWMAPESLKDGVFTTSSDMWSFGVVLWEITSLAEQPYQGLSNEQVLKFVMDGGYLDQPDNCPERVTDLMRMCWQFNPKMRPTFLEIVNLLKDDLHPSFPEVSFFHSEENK

[10] = target: DAPK1(h) (human) (UniProt P53355)
Sequence of DAPK1(h) (human) (P53355 1-289 limits assumed): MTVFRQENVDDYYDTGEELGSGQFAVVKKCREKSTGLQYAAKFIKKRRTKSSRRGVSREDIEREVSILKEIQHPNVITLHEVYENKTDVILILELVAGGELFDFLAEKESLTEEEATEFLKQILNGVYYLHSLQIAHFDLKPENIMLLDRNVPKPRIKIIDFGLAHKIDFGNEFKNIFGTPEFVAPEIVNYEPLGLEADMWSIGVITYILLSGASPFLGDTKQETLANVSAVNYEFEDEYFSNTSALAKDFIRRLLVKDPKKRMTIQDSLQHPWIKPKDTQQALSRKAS

[11] = target: PKBβ(h) (human) (UniProt P31751)
[12] = target: Flt3(D835Y)(h) (human) (UniProt P36888)
[13] = target: Fer(h) (human) (UniProt P16591)
[14] = target: TAO3(h) (human) (UniProt Q9H2K8)
Sequence of TAO3(h) (human) (Q9H2K8 1-315 limits assumed): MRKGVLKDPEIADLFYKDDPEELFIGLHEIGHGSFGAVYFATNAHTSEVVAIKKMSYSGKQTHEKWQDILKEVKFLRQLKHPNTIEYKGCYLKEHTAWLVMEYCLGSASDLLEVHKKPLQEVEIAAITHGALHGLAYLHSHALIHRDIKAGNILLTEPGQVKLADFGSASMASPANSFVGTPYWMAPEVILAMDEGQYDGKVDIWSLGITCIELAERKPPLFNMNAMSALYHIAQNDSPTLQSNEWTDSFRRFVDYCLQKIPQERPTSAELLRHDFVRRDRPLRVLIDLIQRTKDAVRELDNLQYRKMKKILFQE

[15] = target: NEK6(h) (human) (UniProt Q9HC98)
[16] = target: LOK(h) (human) (UniProt O94804)
[17] = target: Pyk2(h) (human) (UniProt Q14289)
Sequence of Pyk2(h) (human) (Q14289 whole entry): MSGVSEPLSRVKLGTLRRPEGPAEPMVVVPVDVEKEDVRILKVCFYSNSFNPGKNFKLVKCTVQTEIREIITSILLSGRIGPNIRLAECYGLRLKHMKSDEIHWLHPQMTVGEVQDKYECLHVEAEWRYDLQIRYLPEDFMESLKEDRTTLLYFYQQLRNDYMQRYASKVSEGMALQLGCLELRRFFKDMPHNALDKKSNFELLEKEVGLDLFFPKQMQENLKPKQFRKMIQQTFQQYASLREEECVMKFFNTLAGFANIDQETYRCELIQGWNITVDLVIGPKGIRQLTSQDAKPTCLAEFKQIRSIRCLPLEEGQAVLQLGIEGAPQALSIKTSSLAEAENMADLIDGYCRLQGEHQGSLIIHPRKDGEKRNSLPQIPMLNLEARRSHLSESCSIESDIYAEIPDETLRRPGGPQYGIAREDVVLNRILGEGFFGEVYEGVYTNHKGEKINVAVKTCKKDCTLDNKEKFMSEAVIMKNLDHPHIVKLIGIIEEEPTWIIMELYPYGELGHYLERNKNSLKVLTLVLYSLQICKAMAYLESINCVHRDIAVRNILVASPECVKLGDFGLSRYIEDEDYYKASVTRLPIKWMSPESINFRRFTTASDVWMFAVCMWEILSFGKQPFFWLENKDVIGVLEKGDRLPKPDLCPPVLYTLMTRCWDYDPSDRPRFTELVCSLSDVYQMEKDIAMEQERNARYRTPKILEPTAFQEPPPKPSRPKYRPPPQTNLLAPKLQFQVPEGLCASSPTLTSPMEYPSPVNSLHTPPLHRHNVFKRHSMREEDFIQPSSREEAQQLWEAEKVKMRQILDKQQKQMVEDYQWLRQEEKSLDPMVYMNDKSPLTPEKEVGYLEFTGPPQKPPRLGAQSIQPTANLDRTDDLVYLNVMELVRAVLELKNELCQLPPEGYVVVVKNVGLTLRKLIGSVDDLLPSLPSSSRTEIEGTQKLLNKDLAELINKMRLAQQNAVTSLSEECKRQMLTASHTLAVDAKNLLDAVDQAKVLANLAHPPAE

[18] = target: EphB1(h) (human) (UniProt P54762)
[19] = target: Fms(h) (human) (UniProt P07333)
[20] = target: FGFR4(h) (human) (UniProt P22455)
[21] = target: TrkB(h) (human) (UniProt Q16620)
[22] = target: EphA5(h) (human) (UniProt P54756)
[23] = target: AMPKa1(h) (human) (UniProt Q13131)
[24] = target: CHK1(h) (human) (UniProt O14757)
[25] = target: LIMK1(h) (human) (UniProt P53667)
[26] = target: JAK3(h) (human) (UniProt P52333)
[27] = target: JNK3(h) (human) (UniProt P53779)
Sequence of JNK3(h) (human) (P53779 whole entry): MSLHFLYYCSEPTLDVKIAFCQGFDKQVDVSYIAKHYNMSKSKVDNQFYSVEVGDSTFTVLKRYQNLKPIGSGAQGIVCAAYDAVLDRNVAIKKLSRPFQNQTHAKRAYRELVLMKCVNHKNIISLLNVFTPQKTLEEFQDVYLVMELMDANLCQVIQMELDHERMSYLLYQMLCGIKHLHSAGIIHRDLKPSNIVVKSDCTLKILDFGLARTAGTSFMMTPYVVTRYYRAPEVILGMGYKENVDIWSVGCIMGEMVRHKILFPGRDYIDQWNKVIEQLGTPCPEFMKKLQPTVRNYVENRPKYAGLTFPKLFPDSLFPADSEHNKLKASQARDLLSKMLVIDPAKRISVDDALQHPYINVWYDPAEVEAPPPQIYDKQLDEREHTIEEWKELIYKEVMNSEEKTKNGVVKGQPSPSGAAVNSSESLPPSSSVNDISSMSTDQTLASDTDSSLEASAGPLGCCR

[28] = target: CDK5/p35(h) (human) (UniProt Q00535)
[29] = target: EGFR(h) (human) (UniProt P00533)
[30] = target: HIPK1(h) (human) (UniProt Q86Z02)
[31] = target: PKCµ(h) (human) (UniProt Q15139)
[32] = target: PRAK(h) (human) (UniProt Q8IW41)
[33] = target: NLK(h) (human) (UniProt Q9UBE8)
[34] = target: NEK3(h) (human) (UniProt P51956)
Sequence of NEK3(h) (human) (P51956 whole entry): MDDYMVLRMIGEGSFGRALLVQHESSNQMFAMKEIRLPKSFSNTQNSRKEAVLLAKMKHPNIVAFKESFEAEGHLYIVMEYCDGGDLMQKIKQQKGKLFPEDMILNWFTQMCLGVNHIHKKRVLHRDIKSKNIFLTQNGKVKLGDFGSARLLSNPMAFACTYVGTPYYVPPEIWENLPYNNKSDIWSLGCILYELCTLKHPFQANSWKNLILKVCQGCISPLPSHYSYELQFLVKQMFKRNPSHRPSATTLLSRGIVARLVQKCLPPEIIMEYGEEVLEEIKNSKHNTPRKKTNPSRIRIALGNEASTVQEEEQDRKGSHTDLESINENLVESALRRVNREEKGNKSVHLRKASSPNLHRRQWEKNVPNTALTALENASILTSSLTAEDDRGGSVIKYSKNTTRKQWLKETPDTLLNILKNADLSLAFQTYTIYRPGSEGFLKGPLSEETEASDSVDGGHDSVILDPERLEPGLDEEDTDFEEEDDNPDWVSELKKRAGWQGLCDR

[35] = target: Met(Y1248D)(h) (human) (UniProt P08581)
[36] = target: CDK2/cyclinA(h) (human) (UniProt P24941)
[37] = target: FAK(h) (human) (UniProt Q05397)
[38] = target: CaMKIIδ(h) (human) (UniProt Q13557)
[39] = target: cKit(V654A)(h) (human) (UniProt P10721)
[40] = target: Ret(V804M)(h) (human) (UniProt P07949)
[41] = target: PKG1β(h) (human) (UniProt Q13976)
Sequence of PKG1β(h) (human) (Q13976 other isoform, or with tags, fused parts or gaps limits assumed): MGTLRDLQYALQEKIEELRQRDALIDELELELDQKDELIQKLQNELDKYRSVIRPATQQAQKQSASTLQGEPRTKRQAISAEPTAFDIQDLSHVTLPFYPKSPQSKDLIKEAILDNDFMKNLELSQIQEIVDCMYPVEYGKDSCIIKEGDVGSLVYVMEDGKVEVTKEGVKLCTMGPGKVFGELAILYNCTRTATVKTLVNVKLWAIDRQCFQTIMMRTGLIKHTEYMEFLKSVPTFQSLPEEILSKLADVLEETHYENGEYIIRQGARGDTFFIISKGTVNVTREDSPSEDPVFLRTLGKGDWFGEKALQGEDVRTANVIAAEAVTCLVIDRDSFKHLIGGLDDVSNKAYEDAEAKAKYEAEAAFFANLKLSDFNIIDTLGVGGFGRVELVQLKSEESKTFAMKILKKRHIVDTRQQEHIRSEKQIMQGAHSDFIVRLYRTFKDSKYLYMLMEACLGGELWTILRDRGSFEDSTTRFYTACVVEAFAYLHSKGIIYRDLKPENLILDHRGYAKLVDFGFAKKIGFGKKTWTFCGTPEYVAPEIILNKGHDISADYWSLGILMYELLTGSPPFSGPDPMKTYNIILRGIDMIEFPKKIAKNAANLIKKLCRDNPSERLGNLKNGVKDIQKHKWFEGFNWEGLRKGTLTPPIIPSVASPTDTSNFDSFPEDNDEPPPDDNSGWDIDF

[42] = target: Ab1(H396P)(h) (human) (UniProt P00519)
[43] = target: MRCKα(h) (human) (UniProt Q5VT25)
[44] = target: CK2(h) (human)
[45] = target: IGF-1R(h), activated (human) (UniProt P08069)
Sequence of IGF-1R(h), activated (human) (P08069 959-1367 limits assumed): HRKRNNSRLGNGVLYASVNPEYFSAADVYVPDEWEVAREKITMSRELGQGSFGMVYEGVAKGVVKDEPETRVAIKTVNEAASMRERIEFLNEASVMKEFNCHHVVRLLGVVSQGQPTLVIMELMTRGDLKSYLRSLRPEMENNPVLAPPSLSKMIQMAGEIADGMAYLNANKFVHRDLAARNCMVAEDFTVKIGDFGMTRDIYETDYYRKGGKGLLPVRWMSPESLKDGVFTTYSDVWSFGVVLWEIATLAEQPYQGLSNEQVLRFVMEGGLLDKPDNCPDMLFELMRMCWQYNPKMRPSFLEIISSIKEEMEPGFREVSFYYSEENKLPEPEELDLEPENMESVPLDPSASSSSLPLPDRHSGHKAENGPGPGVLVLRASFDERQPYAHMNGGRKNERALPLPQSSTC

[46] = target: cKit(h) (human) (UniProt P10721)
[47] = target: BTK(h) (human) (UniProt Q06187)
[48] = target: CDK3/cyclinE(h) (human) (UniProt Q00526)
[49] = target: Lck(h) activated (human) (UniProt P06239)
[50] = target: EphA7(h) (human) (UniProt Q15375)
[51] = target: MST3(h) (human) (UniProt Q9Y6E0)
[52] = target: PTK5(h) (human) (UniProt P42685)
[53] = target: MuSK(h) (human) (UniProt O15146)
[54] = target: Aurora-B(h) (human) (UniProt Q96GD4)
[55] = target: IKKα(h) (human) (UniProt O15111)
[56] = target: cSRC(h) (human) (UniProt P12931)

Sequence of DDR2(h) (human) (Q16832 422-855 limits assumed): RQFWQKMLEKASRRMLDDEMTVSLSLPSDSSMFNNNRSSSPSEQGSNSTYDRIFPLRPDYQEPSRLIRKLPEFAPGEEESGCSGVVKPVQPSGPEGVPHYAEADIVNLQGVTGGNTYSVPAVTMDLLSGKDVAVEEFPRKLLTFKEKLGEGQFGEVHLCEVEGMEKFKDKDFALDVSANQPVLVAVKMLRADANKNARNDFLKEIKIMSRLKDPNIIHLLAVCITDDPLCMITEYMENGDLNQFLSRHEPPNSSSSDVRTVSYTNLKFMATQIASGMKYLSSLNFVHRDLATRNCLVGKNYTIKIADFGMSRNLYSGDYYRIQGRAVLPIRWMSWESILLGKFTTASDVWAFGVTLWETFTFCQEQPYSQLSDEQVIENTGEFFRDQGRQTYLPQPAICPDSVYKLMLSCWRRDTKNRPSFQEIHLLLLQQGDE
Sequence of MSSK1(h) (human) (Q9UPE1 whole entry): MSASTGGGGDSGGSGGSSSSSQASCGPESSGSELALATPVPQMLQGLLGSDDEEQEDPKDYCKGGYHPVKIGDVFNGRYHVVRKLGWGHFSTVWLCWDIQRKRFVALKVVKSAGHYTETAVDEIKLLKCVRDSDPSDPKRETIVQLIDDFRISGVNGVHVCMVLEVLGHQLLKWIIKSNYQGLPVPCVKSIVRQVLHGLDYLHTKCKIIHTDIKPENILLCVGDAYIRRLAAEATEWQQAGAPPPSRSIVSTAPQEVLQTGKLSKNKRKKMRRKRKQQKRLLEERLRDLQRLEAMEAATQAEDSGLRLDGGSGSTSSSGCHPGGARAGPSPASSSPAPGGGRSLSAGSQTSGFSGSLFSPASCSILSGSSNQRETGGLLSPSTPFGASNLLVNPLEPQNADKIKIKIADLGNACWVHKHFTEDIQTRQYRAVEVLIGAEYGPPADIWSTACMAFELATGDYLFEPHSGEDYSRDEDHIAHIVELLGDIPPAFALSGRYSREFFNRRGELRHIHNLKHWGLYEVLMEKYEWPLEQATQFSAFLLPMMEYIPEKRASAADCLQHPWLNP

MMI-0100 (peptide)
% activity [1]: 98% | % activity [2]: 115% | % activity [3]: 82% | % activity [4]: 76% | % activity [5]: 68% | % activity [6]: 105% | % activity [7]: 77% | % activity [8]: 100% | % activity [9]: 127% | % activity [10]: 97% | % activity [11]: 284% | % activity [12]: 120% | % activity [13]: 117% | % activity [14]: 45% | % activity [15]: 109% | % activity [16]: 37% | % activity [17]: 113% | % activity [18]: 99% | % activity [19]: 89% | % activity [20]: 67% | % activity [21]: 4% | % activity [22]: 110% | % activity [23]: 107% | % activity [24]: 97% | % activity [25]: 103% | % activity [26]: 150% | % activity [27]: 104% | % activity [28]: 94% | % activity [29]: 95% | % activity [30]: 94% | % activity [31]: 79% | % activity [32]: 159% | % activity [33]: 100% | % activity [34]: 100% | % activity [35]: 87% | % activity [36]: 97% | % activity [37]: 98% | % activity [38]: 89% | % activity [39]: 69% | % activity [40]: 92% | % activity [41]: 71% | % activity [42]: 130% | % activity [43]: 98% | % activity [44]: 90% | % activity [45]: 126% | % activity [46]: 95% | % activity [47]: 112% | % activity [48]: 106% | % activity [49]: 106% | % activity [50]: 193% | % activity [51]: 104% | % activity [52]: 135% | % activity [53]: 85% | % activity [54]: 94% | % activity [55]: 108% | % activity [56]: 70%

MMI-0200 (peptide)
% activity [1]: 106% | % activity [2]: 92% | % activity [3]: 100% | % activity [4]: 120% | % activity [5]: 128% | % activity [6]: 104% | % activity [7]: 141% | % activity [8]: 97% | % activity [9]: 105% | % activity [10]: 113% | % activity [11]: 250% | % activity [12]: 115% | % activity [13]: 101% | % activity [14]: 102% | % activity [15]: 98% | % activity [16]: 67% | % activity [17]: 127% | % activity [18]: 95% | % activity [19]: 92% | % activity [20]: 75% | % activity [21]: 7% | % activity [22]: 123% | % activity [23]: 108% | % activity [24]: 115% | % activity [25]: 109% | % activity [26]: 117% | % activity [27]: 90% | % activity [28]: 92% | % activity [29]: 83% | % activity [30]: 115% | % activity [31]: 73% | % activity [32]: 115% | % activity [33]: 106% | % activity [34]: 100% | % activity [35]: 118% | % activity [36]: 114% | % activity [37]: 110% | % activity [38]: 2% | % activity [39]: 113% | % activity [40]: 105% | % activity [41]: 57% | % activity [42]: 121% | % activity [43]: 103% | % activity [44]: 83% | % activity [45]: 94% | % activity [46]: 110% | % activity [47]: 100% | % activity [48]: 104% | % activity [49]: 90% | % activity [50]: 220% | % activity [51]: 95% | % activity [52]: 108% | % activity [53]: 106% | % activity [54]: 166% | % activity [55]: 104% | % activity [56]: 32%
